From patent US20050037969A1 (ARBOR VITA, published 2005)
Ends that are not written are not given here. * marks the point of attachment. Biotin = O=C1N[C@H]2[C@H](CS[C@H]2CCCCC(=O)*)N1

What was measured:
Experiment in all cases: A/G assays
[1] = target: T1, GST-PTN-4 PDZ domain fusion protein (Homo sapiens (Human), UniProt P29074 517-605)
T1 construct: also called protein-tyrosine phosphatase meg1; not shown: glutathione S-transferase encoded by vector pGEX-3X (Pharmacia)
T1 sequence: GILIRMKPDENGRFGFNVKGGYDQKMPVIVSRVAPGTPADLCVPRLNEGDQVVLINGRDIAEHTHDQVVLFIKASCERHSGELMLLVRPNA

[2] = target: T2, GST-mouse syntenin fusion protein (Mus musculus, UniProt O08992 108-286)
T2 construct: also called Mus musculus Syntenin; not shown: glutathione S-transferase encoded by vector pGEX-3X (Pharmacia)
T2 chain: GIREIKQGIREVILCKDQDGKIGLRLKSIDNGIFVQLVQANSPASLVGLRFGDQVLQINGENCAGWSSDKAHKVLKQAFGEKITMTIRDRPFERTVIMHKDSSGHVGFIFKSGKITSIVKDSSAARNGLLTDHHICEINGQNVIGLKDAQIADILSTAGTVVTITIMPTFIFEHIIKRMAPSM

[3] = target: T3, K559 PDZ-GST fusion protein (Homo sapiens (Human), UniProt Q9Y6V0 4489-4593)
T3 construct: Order of GST and PDZ part and limits not seen in the excerpts
T3 sequence: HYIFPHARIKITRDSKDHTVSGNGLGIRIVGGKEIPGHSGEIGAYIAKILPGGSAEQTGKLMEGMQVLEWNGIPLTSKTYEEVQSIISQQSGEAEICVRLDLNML

[4] = target: T4, GST-PDZK1 fusion protein (PDZ domains 2-4) (Homo sapiens, UniProt Q5T2W1 134-457)
T4 construct: not shown: glutathione S-transferase encoded by vector pGEX-3X (Pharmacia)
T4 sequence: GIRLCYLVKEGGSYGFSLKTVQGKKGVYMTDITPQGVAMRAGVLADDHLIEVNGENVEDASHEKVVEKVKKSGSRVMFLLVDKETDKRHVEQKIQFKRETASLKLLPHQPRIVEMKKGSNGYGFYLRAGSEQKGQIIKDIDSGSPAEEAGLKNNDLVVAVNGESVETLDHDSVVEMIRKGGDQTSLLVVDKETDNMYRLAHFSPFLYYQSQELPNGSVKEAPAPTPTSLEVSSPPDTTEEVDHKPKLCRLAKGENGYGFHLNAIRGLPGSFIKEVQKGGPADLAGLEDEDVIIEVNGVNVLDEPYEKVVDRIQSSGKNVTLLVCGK

[5] = target: T5, TAX-IP2L PDZ-GST fusion protein (Homo sapiens (Human), UniProt Q8TF64 107-197)
T5 construct: Order of GST and PDZ part and limits not seen in the excerpts
T5 sequence: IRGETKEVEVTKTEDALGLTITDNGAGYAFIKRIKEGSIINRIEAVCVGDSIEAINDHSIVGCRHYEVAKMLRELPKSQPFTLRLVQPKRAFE

[6] = target: T6, KIAA0807 (PDZ domain)-GST fusion protein (human, UniProt Q6P0Q8 1104-1192)
T6 construct: also called K807; KIAA807; not shown: glutathione S-transferase encoded by vector pGEX-3X (Pharmacia)
T6 sequence: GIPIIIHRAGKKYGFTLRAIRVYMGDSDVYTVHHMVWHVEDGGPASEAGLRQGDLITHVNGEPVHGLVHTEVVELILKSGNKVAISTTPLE

[7] = target: T7, GST-TAX-IP40 PDZ domain fusion protein (human, UniProt Q6B4M5 150-252 (rat entry))
T7 construct: also called TAX40; not shown: glutathione S-transferase encoded by vector pGEX-3X (Pharmacia)
T7 sequence: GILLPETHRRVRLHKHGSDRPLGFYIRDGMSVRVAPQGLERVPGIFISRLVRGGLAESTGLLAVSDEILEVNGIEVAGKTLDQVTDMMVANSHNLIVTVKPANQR

[8] = target: T8, X11β PDZ-GST fusion protein (Rattus norvegicus (Rat), UniProt O35431 560-745)
T8 construct: Order of GST and PDZ part and limits not seen in the excerpts
T8 chain: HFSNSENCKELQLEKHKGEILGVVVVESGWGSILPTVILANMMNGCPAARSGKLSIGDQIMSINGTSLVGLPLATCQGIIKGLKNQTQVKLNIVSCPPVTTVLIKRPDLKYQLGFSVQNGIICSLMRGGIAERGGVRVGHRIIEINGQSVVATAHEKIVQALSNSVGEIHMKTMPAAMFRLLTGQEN

[9] = target: T9, GST-TAX-IP43 PDZ domain fusion protein (human, UniProt Q13884 109-180)
T9 construct: also called TAX43; not shown: glutathione S-transferase encoded by vector pGEX-3X (Pharmacia)
T9 sequence: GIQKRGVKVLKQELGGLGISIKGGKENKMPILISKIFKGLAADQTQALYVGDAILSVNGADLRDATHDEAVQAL

[10] = target: T10, GST-CASK PDZ domain fusion protein (Homo sapiens, UniProt O14936 486-575)
T10 construct: also called Homo sapiens CASK protein
T10 sequence: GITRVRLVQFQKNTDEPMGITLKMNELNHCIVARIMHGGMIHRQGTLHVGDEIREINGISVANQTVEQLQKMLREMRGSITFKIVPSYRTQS

[11] = target: T11, ConEn PDZ-GST fusion protein (Homo sapiens (Human), UniProt Q969H4 193-287)
T11 construct: The label ConEn is not explained in the excerpts
T11 sequence: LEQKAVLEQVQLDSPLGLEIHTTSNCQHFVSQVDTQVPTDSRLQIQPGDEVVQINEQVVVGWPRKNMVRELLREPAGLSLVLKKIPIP

[12] = target: T12, NOS1 PDZ-GST fusion protein (Homo sapiens (Human), UniProt P29475 11-100)
T12 construct: Order of GST and PDZ part and limits not seen in the excerpts

[13] = target: T13, GST-MPP1 PDZ domain fusion protein (Homo sapiens (Human), UniProt Q00013 67-152)
T13 construct: also called p55; 55 Kd erythrocyte membrane protein; not shown: glutathione S-transferase encoded by vector pGEX-3X (Pharmacia)
T13 sequence: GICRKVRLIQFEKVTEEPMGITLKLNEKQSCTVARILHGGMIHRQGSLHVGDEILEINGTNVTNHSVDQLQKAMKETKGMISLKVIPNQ

[14] = target: T14, GST-TAX-IP2 PDZ domain fusion protein (human, UniProt O14908 129-216)
T14 construct: also called TAX-1P2; TAX2; not shown: glutathione S-transferase encoded by vector pGEX-3X (Pharmacia)
T14 chain: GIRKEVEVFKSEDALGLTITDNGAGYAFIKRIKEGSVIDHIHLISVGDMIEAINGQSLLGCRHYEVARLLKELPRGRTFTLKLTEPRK

Measured: binding result

T12 sequence (P29475 11-100 limits assumed): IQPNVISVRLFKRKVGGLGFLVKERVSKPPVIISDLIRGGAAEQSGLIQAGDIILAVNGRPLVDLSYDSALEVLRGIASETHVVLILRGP

B1: FceRIb C-terminal peptide AA25L, biotinylated (peptide)
peptide: Biotin-YSATYSELEDPGEMSPPIDL
notes: also called FceRlb; FcεRβI
no binding: all assays above

B2: CC CKR-2 C-terminal peptide AA42L (peptide)
peptide: Biotin-GKGKSIGRAPEASLQDKEGA
notes: Only the last four residues are seen in the excerpts
no binding: all assays above

B3: CD166 C-terminal peptide AA20L, biotinylated (peptide)
peptide: Biotin-DLGNMEENKKLEENNHKTEA
notes: also called CD166 (CD6L)
no binding: all assays above

B4: CD95 (Fas) C-terminal peptide AA13L, biotinylated (peptide)
peptide: Biotin-KDITSDSENSNFRNEIQSLV
notes: also called CD95 (Apo-1/Fas); AAI3L
no binding: all assays above

B5: CC CKR-4 C-terminal peptide AA44L (peptide)
peptide: Biotin-DTPSSSYTQSTMDHDLHDAL
notes: as for B2
no binding: all assays above

B6: CC CKR-1R C-terminal peptide AA41L (peptide)
peptide: Biotin-LERVSSTSPSTGEHELSAGF
notes: as for B2
no binding: all assays above

B7: CD83 C-terminal peptide AA47L, biotinylated (peptide)
peptide: Biotin-VTSPNKHLGLVTPHKTELV
no binding: all assays above

B8: CDW128A (IL8RA) C-terminal peptide AA29.1L, biotinylated (peptide)
peptide: Biotin-ARHRVTSYTSSSVNVSSNL
no binding: all assays above
